29 sequences from the supplement of paper PMC9170038 can be followed below.

This series has as its system MS2 coat protein. Put plainly: apparent KD of MS2 coat protein; designed switch direction (-1 OFF switch, 1 ON switch): -1; higher = weaker reporter binding. The essentials: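 RNA switches sharing common flanks were transcribed by stalled E. coli RNA polymerase on Illumina chips. A doubling series of SNAP-549-labelled MS2 coat protein, from 0.7 or 1.5 nM to 3 µM, was applied in Tris-HCl pH 7.5 buffer with KCl, MgCl2, BSA, DTT, tRNA and Tween-20. Each step lasted 0.8–1.5 h at the bottom of the series and 10–20 min at the top. Normalised cluster fluorescence was curve-fitted, giving apparent KD as the per-design median over clusters.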

Setting [1] is: input ligand: microRNA oligo, concentration not stated.
[2] abbreviates: Eterna round: R95, input ligand: FMN 200 uM.
[3] abbreviates: Eterna round: R95, input ligand: microRNA oligo, concentration not stated.
Setting [4] is: Eterna round: R95, input ligand: none.

As for “AGCUGUGGCCGAGGAUAUACAUGAGGAUCACCCAUGUUACAUAAUUCGACAUGAGAAUACGAACCGUAGAAGGCGGUCUCAGCA [Eli eng2 - 002] (Eterna round: R96, puzzle: Exclusion NG 2)”, the “apparent KD of MS2 coat protein” value is, setting by setting: (input ligand: FMN 200 uM) 127 nM; under setting [1], 37.8 nM; (input ligand: none) 66.1 nM.
Taken in the same sequence, the figures for “AGCUGUGGCCGAGGAUAUAUACAUGAGGAUCACCCAUGUAGGUGCGGAUACUCGCACCAAUAAGUGUAGAAGGCGGUCUCAGCA [Eli eng2 - 058] (Eterna round: R96, puzzle: Exclusion NG 2)” were 10.7 nM, 13.1 nM and 13.3 nM.
For “AGCUGUGGCCGAGGAUAUCCACAUGAGGAUCACCCAUGUUGAUACGCCGUUAAAGGCGAUAUAAGGGAGAAGGCGGUCUCAGCA [Eli eng2 - 051] (Eterna round: R96, puzzle: Exclusion NG 2)” the same measures were 12.5 nM, 7.18 nM and 9.26 nM.
“AGCUGUGGCCGAGGAUAUCUAAUAAUCCCAACCGAAAUAUAAUCGGACAUGAGGAUCACCCAUGUAGAGAAGGCGGUCUCAGCA [Eli eng2 - 066] (Eterna round: R96, puzzle: Exclusion NG 2)”: under setting [1], the “apparent KD of MS2 coat protein” value amounted to 96.6 nM.
“AGCUUUUUGUUCGUCUUACACAUGAGGAUCACCCAUGUGUUGGACCGCAUCGAUAGAUGUAGACCGAGAAGCAUGGG [Omdei Mir OFFv1 C8] (Eterna round: R97, puzzle: Sensor, turn-off variant 1)”: the “apparent KD of MS2 coat protein” value runs as follows: (input ligand: FMN 200 uM) 24.5 nM; (input ligand: none) 23.8 nM.
For the sequence “AGGAAACAUGAGGAUCACCCAUGUGAGGAUAUUUGAAAGAAAAGAAAAGAAAGAAGAAGAAGAAGGCACAAGAA [Merneith] (Eterna round: R96, puzzle: Exclusion 1)”, the “apparent KD of MS2 coat protein” value under setting [1] came out at 23.8 nM.
“AGGACGAUAGGAUAUACAUGAGGAUCACCCAUGUGCAUAAGAAUAUGCCAAUCCACGCGUAGAAGGAUCAUAAU [Eternabot (Original) Solution 11] (Eterna round: R97, puzzle: Exclusion 3)”: the “apparent KD of MS2 coat protein” value runs as follows: (input ligand: FMN 200 uM) 65.4 nM; (input ligand: none) 28.1 nM.
As to “AGGAGACAUGAGGAUCACCCAUGUAAGGAUAUGUAGGAGCAGCCGGCUGGUUCGCUCCGCAGAAGGUGCGCGGU [Eternabot (L2) Solution 11] (Eterna round: R97, puzzle: Exclusion 1)”, the “apparent KD of MS2 coat protein” value runs as follows: (input ligand: FMN 200 uM) 49.3 nM; (input ligand: none) 41.3 nM.
With “AGGCCACAUGAGGAUCACCCAUGUUAGGAUAUCGAGAGUACAACGAGCCGUCACUUCCCGAGAAGGGACAAGGG [Eternabot (Original) Solution 22] (Eterna round: R97, puzzle: Exclusion 1)”, the “apparent KD of MS2 coat protein” value was determined as 65.3 nM (input ligand: FMN 200 uM) and 54.5 nM (input ligand: none).
As to “AGGGAUAAAGGAUAUACAUGAGGAUCACCCAUGUUGAGGAAAGUUAGAUGAGGAGGAAGUAGAAGGUUAGGCGA [JR_Exclu3_Sub086] (puzzle: Exclusion 3)”, the “apparent KD of MS2 coat protein” value turned out to be 31.1 nM under setting [2], 31.7 nM under setting [3] and 40.4 nM under setting [4].
In the case of “AGGUAGUCAGGAUAUUAGGAGUAGCGGGAUAACGCUACGAGUGAGAAGGGACAUGAGGAUCACCCAUGUUUUGU [JR_Ex4_Sub068] (Eterna round: R97, puzzle: Exclusion 4)”, the “apparent KD of MS2 coat protein” value runs as follows: (input ligand: FMN 200 uM) 24.3 nM; (input ligand: none) 23.1 nM.
On to “AGGUCACAUGAGGAUCACCCAUGUCAGGAUAUCGUCACUGGAGCUGCGGCUCCAGUGACGAGAAGGGACAAUUA [E1/6-A3] (Eterna round: R97, puzzle: Exclusion 1)”, for which the “apparent KD of MS2 coat protein” value was determined as 372 nM (input ligand: FMN 200 uM) and 77.2 nM (input ligand: none).
For “AGGUGCUUCUGGAGACAUGAGGAUCACCCAUGUUGAGUUAGCGAGGAUAUCGGUAAUGCAUGUGAUGAGAAGGCGCAAACCGAU [Ex NG3 #48] (Eterna round: R96, puzzle: Exclusion NG 3)”, the “apparent KD of MS2 coat protein” value by setting is: (input ligand: FMN 200 uM) 36.8 nM; under setting [1], 40.3 nM; (input ligand: none) 46.1 nM.
In the case of “AGGUGUAGAGGAUAUACAGUGUAUUACAUGAGGAUCACCCAUGUCCCUCAAUGAGUGUCAGUAGAAGGCUACACCA [Omei Ex5 C3] (Eterna round: R97, puzzle: Exclusion 5)”, the “apparent KD of MS2 coat protein” value by setting is: (input ligand: FMN 200 uM) 329 nM; (input ligand: none) 403 nM.
Taken in the same sequence, the figures for “AGGUGUAGAGGAUAUACUGCAAAGCACAUGAGGAUCACCCAUGUCCCUCUAUGAAAUUAAGUAGAAGGCUACACCA [Omei Ex5 C5] (Eterna round: R97, puzzle: Exclusion 5)” were 88.6 nM and 77.1 nM.
As to “AGUAACUAUCACGAAAGUGAUAGUUACAAUAGCAGUGGAACAUGAGGAUCACCCAUGUCCUCAUUUGCUCGUCUUAU [Sensor 3 - 22] (puzzle: Sensor v3, turn-off variant 2)”, the “apparent KD of MS2 coat protein” value under setting [2] worked out at 36.2 nM, the “apparent KD of MS2 coat protein” value under setting [3] was 21.6 nM and the “apparent KD of MS2 coat protein” value under setting [4] is 38.4 nM.
Taken in the same sequence, the figures for “AGUAACUAUCACGAAAGUGAUAGUUACACAAGUGAAUAAACAUGAGGAUCACCCAUGUCCUCAUUUGCUCGUCUUAU [Sensor 3 - 16] (puzzle: Sensor v3, turn-off variant 2)” were 418 nM, 365 nM and 499 nM.
For “AGUACUAACACGAAAGUGUUAGUACAAUAAGCUAGUGGAACAUGAGGAUCACCCAUGUCCUCAUUAGCUCGUCUUAA [Mat - Sensor v3 - Turn-off var 2 - D34] (puzzle: Sensor v3, turn-off variant 2)” the same measures were 14.2 nM, 29.2 nM and 15.5 nM.
Taken in the same sequence, the figures for “AGUACUAACACGAAAGUGUUAGUACAAUAAGCUUGUAGAACAUGAGGAUCACCCAUGUCCUCAUAAGCUCGUCUUAU [Mat - Sensor v3 - Turn-off var 2 - D48] (puzzle: Sensor v3, turn-off variant 2)” were 52.1 nM, 442 nM and 53.5 nM.
On to “AGUACUAACACGAAAGUGUUAGUACAAUAAGCUUGUGAAACAUGAGGAUCACCCAUGUCCUCAUAGGCUCGUCUUAU [salish99_TOv2_r3_054] (puzzle: Sensor v3, turn-off variant 2)”, for which the “apparent KD of MS2 coat protein” value reads like this: under setting [2], 26.3 nM; under setting [3], 607 nM; under setting [4], 18.3 nM.
Take “AGUACUAACACGAUAGUGUUAGUACAAUAAGCUUGUGUUACAUGAGGAUCACCCAUGUCCUCAUAAGCUCGUCUUAU [Mat - Sensor v3 - Turn-off var 2 - D54] (puzzle: Sensor v3, turn-off variant 2)”: the “apparent KD of MS2 coat protein” value runs as follows: under setting [2], 105 nM; under setting [3], 30.4 nM; under setting [4], 129 nM.
As for “AGUACUAUCACGAAAGUGAUAGUACAACGAGCUUGUGAAACAUGAGGAUCACCCAUGUCCUCAUGAGUUCGUCUUAU [JL turnoff v2 67] (Eterna round: R96, puzzle: Sensor v2, turn-off variant 2)”, the “apparent KD of MS2 coat protein” value (input ligand: FMN 200 uM) was 13.9 nM, the “apparent KD of MS2 coat protein” value under setting [1] was found to be 65.4 nM and the “apparent KD of MS2 coat protein” value (input ligand: none) came out at 15.7 nM.
In the case of “AGUACUAUGCGAGCUGACUUGCGUAGUGCAGCAGGUGUUACAUGAGGAUCACCCAUGUCCUCAUUUGCUCGUCUUAA [Mat - Sensor v3 - Turn-off var 2 - D7] (puzzle: Sensor v3, turn-off variant 2)”, the “apparent KD of MS2 coat protein” value under setting [2] came out at 267 nM, the “apparent KD of MS2 coat protein” value under setting [3] was 91.8 nM and the “apparent KD of MS2 coat protein” value under setting [4] turned out to be 293 nM.
For “AGUACUGACACGUUGGUGUUAGUACCAUAAGCUUGUGAUACAUGAGGAUCACCCAUGUCCUCAUAAGCUCGUCUUAU [salish99_TOv2_r2_096] (puzzle: Sensor v3, turn-off variant 2)” the same measures were 27.4 nM, 484 nM and 26 nM.
Take “AGUACUGAGCAGGAUAUAUACAGGAUGCCCUCUGUAGAAGGGCUAACAUGAGGAUCACCCAUGUCCUAUAUGGC [Eternabot (L2) Solution 56] (Eterna round: R97, puzzle: Exclusion 6)”: the “apparent KD of MS2 coat protein” value is, setting by setting: (input ligand: FMN 200 uM) 39 nM; (input ligand: none) 49.1 nM.
For “AGUACUUACACGAAAGUGUAAGUACAAUAAGCUUGUGGAACAUGAGGAUCACCCAUGUCCUCAUAAGCUCGUCUUAU [Mat - Sensor v3 - Turn-off var 2 - D28] (puzzle: Sensor v3, turn-off variant 2)”, the “apparent KD of MS2 coat protein” value under setting [2] was 14.5 nM, the “apparent KD of MS2 coat protein” value under setting [3] is 75.2 nM and the “apparent KD of MS2 coat protein” value under setting [4] turned out to be 14.3 nM.
“AGUAGGUCUACCUUGGUGGAUCUGCAUUUAUGCAGGUGUACAUGAGGAUCACCCAUGUCCUCAUUUGCUCGUCUUAU [JL turnoff v2 99.27] (puzzle: Sensor v3, turn-off variant 2)”: the “apparent KD of MS2 coat protein” value under setting [2] was 400 nM, the “apparent KD of MS2 coat protein” value under setting [3] was determined as 501 nM and the “apparent KD of MS2 coat protein” value under setting [4] turned out to be 349 nM.
For “AGUAGUAGUAUCCGAUCCUACAUGAGGAUCACCCAUGUAGCUAGACGUGCACGCGAUGCUCGUCAGACUACCAGAUG [salish99_TOv1_r3_033] (puzzle: Sensor v3, turn-off variant 1)” the same measures were 195 nM, 184 nM and 253 nM.
For “AGUAGUAGUAUCCGAUCCUACAUGAGGAUCACCCAUGUAGCUAGACGUGCACGCGAUGCUCGUCAGACUGCCAGAUG [salish99_TOv1_r3_049] (puzzle: Sensor v3, turn-off variant 1)” the same measures were 95.4 nM, 97.8 nM and 128 nM.
